# Literature values as cited in patent publication US20210333272A1.
# System: CD63 fragment
# Conditions: CITED BasePair Biotechnologies CD63 aptamer data sheet; cited from earlier work
substance,measurement,value
BasePair CD63 aptamer (ATW0056),Kd,17.1 nM
